assay: label from the status in PepcDB records

Sequence | protein production
MSILMLFGLATLRSATYGENEQLFTRQIVWDIAGFSLMFLVLFIKDRTIRNFSIILYVFSVVLLAALLVKGTPIGGSKRWFRVMGFSFQPSDFAKLSLIVLLPYLLEKRWFWRSFFLTVVPAVLIFLEPDLGTTLSVGLIWLFAVLASNVNKKPLVILLILVLVFLPVFFFFGLKDYQRARILSFLNPEEYGESYSYNVLQSIHAIGAGGLFGAGYMKGKANLMGYVPVSYTDFIVSVIGEEFGFIGIVFLLSLFGLLFFEVSRWILNVKDEYWEILMVSACGLIWFHVFENVSMNLGLLPVTGVPLPFISYGGTSTLVFSILVGLILKGIALARVEKKL | failed
MSIPLLEYAPSSQNQRVEGYEVPNEDTPTIYRLAAAIDDADVDAIIWAGYRQIFSEHLIIKSNRQSFLESQLRNRAINVRDFIRGLGKSEVYRTQVADLNSNYRLVDITLKRFLGRAAYNQDEEIAWSIVIGSQGLHGFIDALLDSDEYRENFGDDIVPYQRRRYKDRPFNLVNPRYNAYWRDRQTLNALGGRSFYSARTSGTLTKDDIRRAIPANFMALAGKILTPERNYQRTIASVTSQIKDIKIPDTSREVTTPEVTVKPVAVALPYRYIPGNKTT | failed
MSISISSIPDLTTVRARHPEAIAEAAARRVRRPLIGDSGRLMIVAADHPARGALGVGDRGLAMANRADLLERLCTALSRPGVDGVLATADVLEDLLLLGVLENKVVMGSMNRGGLAGAAFEMDDRFTGHRAEDIARLRFDAGKLLLRIDYDDPGSLTTMEASARAVDAMAARELPLFVEPFISRRIDGRVRNDLSAEAVTRSVAIASGLGGTSAYTWLKLPVTRNPDDMAEVLETSTLPAVLLGGDIGGSPADQTAAYERWRKALRLPTVQGMVVGRSLLYPAGGSVEEAVDTAVGLL | failed
MSISSHDVGRTYPTTDPYLVTAEKIRELATALGDNAPAYRGDDPIAPPTFAMVLASRAWEALFDDEQLDLRLEHMIHTDQSFHWIRPLHEGDEVTAALTITSVRTRGNTDIIGINVSLDHVDGEHLGNATSTLWHTRPEGNA | failed
MSKDGLSNDQVSSMKEAFMLFDTDGDGKIAPSELGILMRSLGGNPTESQLKSIITTENLSSPFDFNRFLDLMAKHLKTEPFDRQLRDAFKVLDKEGTGFVAVADLRHILTSIGEKLQPSEFDEWIKEVDVGSDGKIRYEDFIARMVAK | failed
MSKDSNKIIEQSREIGISIIMPLYNVEEVILETLESIHEQTFDSYEVLLIDDGSTDKTIEIVTEYIKDKPRFKLYTQPNGGPASARNHGLRLAIGMYICFVDSDDILPNYSLQLMYDGAISTGAKLITGATKRFNSEGEWFIPMHIQYNIAKPGMKTLLKNPELFYSIGPCAKLYHHSLIDGVFFPENIRYGEDQPFVLHALLQAKDIYTVEKVVYYYRLRDGESQSLTQSVDKDPIRILKSVFQIFDYGEEELKKNNTDYEVALKYYQRVSSVELWGALRAAIESKKSENQKIAFTMTLDWLKTKSDDFLNIIPSFRYFLLFSSIERVRYITKDNKENYRNLIGYLWSRQGEEAKIAFRKTYPIPMKAALQIIENNNWRDARKISFKFIVRRKFKAPILIRKISRGIIFRIATLMPRKKNQVILATERSTTLEGNLLAIYDYMFYNNMPQKVYVFLRKNRNWFEMFQLYYTLGRTKTIVLDDYYNKIYGLKFNKNTHVVQSWHATGAFKKFGFSALEGTDANTEEFETRAHSPYTDVLVSSEGIIPEYMEAFRKQANQIKPIGVPRTDVFFDDEYVNYTKEKYMKMYPQLRDKKILLYAPTFRGGPNERFNYSVVLDIAALKKELGDTHILILKFHPVIKNVSFNVEEDDPFILNLTLNNDINDLMLFSDALITDYSSVIFEFSLMNKPIYFFAYDIDDYLDERGFYFDYKATIPGEVFRDTPSLIEAVKSGLYNYDELEIFKKKFVGSLDGNSTKRFVETYIGKANEKVKDILEHHHHHH | not failed
MSKEMRSRLFSILKVVFAVALFSIVVFTLYKELSHINIKETIQSFGKINRVWLVALFVIGGASIIVLSMYDVILAKSLNLKISLLKTIRVGYIVNALNAVVGFGGFIGASVRFLFYKNATDDKRALLHTISIVLISMLTGLSLLSILVVIHVFDVSHLFTPYPWIKWLMYVVALFLPVFVIFTILRPVQENQKLLGVYCTIVSSIEWLVAALVLYMALTMVGVHVPISIFMGIFIIAALSGLISFIPGGFGTFDLVVLLGLKHLNIDEESIVLGLLLYRFAYYLFPVLVALILSTFEFRGTAKRYWEDARILVPVRDMTSLLSSYQKDIIARAPSFSIAILLMFTSLLFFLNNLTIIYDGLYDPNHYIYYIIVSVHTCACLLLLLNVVGVYRLSKRAILFSIISIILIFIVTAYTYASFILLSWLVVMLILLFIFYRRARVIKRPFRYLKLCLSFIMGALVLYINHIVIASTFYTLDIYHIEIDTSILRYYFWFTILLVAVIVGLIVWWFEYRYRISNTREDTKICASIVKQYGGNYLSHLMYSGDKKFFINENEDAFIMYRYQRNAYIVLGDPIGNPQSFYSLLESFYQEAEYLGYDIIFYQVTDRNMSLYHSFGNQFFKLGEEAVIDLNEFKISGKKKRGLRATLNKLDDLKYTFEVIEPPFTQALITDLKTISDEWLADKKEMHFSVGSFNESYLSKAPIAIIKDSDGLIIAFCTLMPTYYKGTISVDLIRWKPDCTLPLMDGLYLNMLLWSQKQNYQHFNMGMATLSNVGQLPYSFYGERIAGRVFEHFNGLYRFQGLRKYKEKFNPNWEPRFLVYRKRHSLWLSMIKVMRVIRKHK | failed
MSKHKFMIYFLTTTLVLPTFTTSIAHAEDTNEDDKMKSSSTQEEQTNHNEDVNDNNTNEASQPDDTQSDNTSSEAPTKEDSKNKIKREKSKSSNTSSEEKDDDNTSVSRSHQKRDKDTNNTYRTPLSPIFDATHSSGLPASNFLNPDLYQNGFSLTHLIASLFNFDSDISDYEQPASTNETDDDTHSTNEQDTDSQDQDQTEHSASSSDTTNREHDDVQQSSEKANQSDKTSRQDEIDTKQQSTANQDKDDASVSKALDAIDDFVSDETDDDKDNQGSNNTDTTNHQSYNDDTSTDSKNDSSKTSSSDSNSLSESALDTVLDKYSEDAKKTHQDFESSKKDNETNTSKGEKTKNNTTKASNPQLPTKKELEHKTTPAQSFEDDFKQSNTRSTSLFQTLPQLNGSDVTDGDITVVENKGTRDFIKSIAKDAHKIGQDKDLYASVMIAQAILESSSGNSTLAQAPNYNLFGIKGSYKGQSVNFNTLEAGSDNSMFSINAGFRKYPSTKASLEDYADLIKNGIDGNPTIYKPTWKHEAIDYRDATRHLSRTYATDPNYATKLNSLIKHYHLTDFDKKKMPDLDRYAKQTSSGEDASGSEFKSFEITDSSSPYPQGQCTWYVYERVQQFGKKVGSDWGDAHNWDNRAESDNYDVSQTPSTHSAVVFEAGQAGAHDIYGHVAFVEKVNKDGSIVISESNVKGLGIVSYRTIDASTAEDLHYIEPK | failed
MSKIEDIRKFYARLMAANAASSDPRLEQVFATVPREAFLGPGPWTIVAGSGRVTTPSADPAHIYQNVLVALDADKGINNGEPFLHAMWIGKLAPKPGEAVTHVGAGTGYYSAVLARLVSPGGTVTAFELEGRLADLARKNLEIYGNATVIHGDAVTRPLPPSDIIYVNAGVVAPPVGWLKALRPGGRMIFPWRPSERVPLAVMVTRTEKGFACDPFMRSWFIPCIGASVADLAAKIPTPEQATRSRSIWLTQHKAPDRTATAIFGDVWFSTKDVRAKPGS | failed
MSKIEIFEAAGCCATSSVVVSDEAVKWNASAEWAKKHGVNIQRYSLAKNPQQFLNTPVIRAFLNTSGMESLPATLLDGQLVMAGKLPSREDIARWAG | not failed
MSKIFNEELAVIEAAAIAYLTAFNRADIPAVIATYTDDGVLMGPGRPAAVGKDELAEVYLSVFETVGFDMAYEIKEVVQTSADWAFVRSATEGTETNKATGVVTPAAYQELFLLRKSATGSWQTARYCTSKISP | not failed
MSKITFKDIYIDGNKITEDSRKAIYLLPPQPLKYASNTWIYKTMPTMNQWLKDIEVQKKMHLNQSSYHLSFSFPANEKIDEVLLEKIRELGFQIGVLELYVIEAKALKELSRKRDVDIQLVSSNNINDYLHVYDAFARPFGDSYANMVKQHIYSSYNLDDIERLVAYVNHQPVGIVDIIMTDKTIEIDGFGVLEEFQHQGIGSEIQAYVGRMANERPVILVADGKDTAKDMYLRQGYVYQGFKYHILKENI | not failed
MSKKKGLSAEEKRTRMMEIFSETKDVFQLKDLEKIAPKEKGITAMSVKEVLQSLVDDGMVDCERIGTSNYYWAFPSKALHARKHKLEVLESQLSEGSQKHASLQKSIEKAKIGRCETEERTRLAKELSSLRDQREQLKAEVEKYKDCDPQVVEEIRQANKVAKEAANRWTDNIFAIKSWAKRKFGFEENKIDRTFGIPEDFDYID | failed
MSKPPPKPVKPGQVKVFRALYTFEPRTPDELYFEEGDIIYITDMSDTSWWKGTCKGRTGLIPSNYVAEQAESIDNPLHEAAKRGNLSWLRECLDNRVGVNGLDKAGSTALYWACHGGHKDIVEVLFTQPNVELNQQNKLGDTALHAAAWKGYADIVQLLLAKGARTDLRNNEKKLALDMATNAACASLLKKKQQGTDGARTLSNAEDYLDDEDSD | failed
MSKQLLALNIDGALLRSNGKIHQATKDAIEYVKKKGIYVTLVTNRHFRSAQKIAKSLKLDAKLITHSGAYIAEKIDAPFFEKRISDDHTFNIVQVLESYQCNIRLLHEKYSIGNKKKVNSNLLGKALIHPSDPIFYPVQFVESLSDLLMDEPVSAPVIEVYTEHDIQHDITETITKAFPAVDVIRVNDEKLNIVPKGVSKEAGLALVASELGLSMDDVVAIGHQYDDLPMIELAGLGVAMGNAVPEIKRKADWVTRSNDEQGVAYMMKEYFRMQQRKGFLDKFHMKRV | failed
MSKRDYYQVLGVPRTASEDDLKKAYRRCAMKYHPDRNPGDAAAEAAFKECKEAYEVLADTKKRKLYDTHGHAAFEHGVGSGNTPDMNDIFGDIFGNIFGGARASRRGADVGYMVELDLEEAVAGVERQIQIPTLVECTHCHGSGSEDGHVETCGTCRGSGQVRIQRGIFAMQQTCPHCGGRGVIIRNPCKVCNGAGRVEDHKTLSVKIPAGVDNGDRIRLSGEGEQGPDGVPPGDLYVEVRVREHPIFQRDGDDLHCEVPVRISQAALGDIVRVATLDGEAEIRIPAETQSGKLFRLRGKGVRSVRSRTEGDLYCRIVVETPVNLTAEQRKLLEQFEMTFAGEDARKHSPKSATFLDGVKSFWDRMTS | failed
MSKREDEGCARKRRTEAGQRSEDCMNPNSVVISAFKVFQQELDTRYDKYERLVKISRDVTIESKRTIFLLHRVASVPDVEEILNEAEVKLDGVRQKIGQIAEELRGEDLHQFHRAFTPGIQEYVEAVSFHHFIRHRSLISLEEINARLVFIRDNNKAVGEGTFSSPCVLTFQITPTDYLLGVADLTGELMRMCISSVGNGDMDTPFQLSGFLRQIHDGFSLIGNTGPYEVSKKLHALRQSLGKVEDACYTLRVRGSEIPKHMLADVFSSRAAHIDPDDAMA | not failed
MSKVEQNAQHNIQQTSPNAAVQSGLQEWHRIIAEADWERLPDLLAEDVVFSNPSTFDPYHGKGPLMVILPAVFSVLENFQYARHFSSKSGYVLEFNANMGDELLTGVDLIEFNDAGKITDLVVMMRPASVVIDLSVEVGKRIAAAQS | not failed
MSKVIFALVLVVVLVACINATYVEFEEAYAPVDCKGQCTTPCEPLTACKEKCAESCETSADKKTCRRNCKKADCEPQDKVCDACRMKCHKACRAANCASECPKHEHKSDTCRACMKTNCK | not failed
MSKVLQISSAIPELDYANIPKEIIPFLASYNLIPQLLSQRIIESAIAPITCTQAEISHALDQFYQHWDLTTAEKIKDWCLRYGLNAEKLKLLATRKLRVEKFKQINWRHQLESYFLKRKKYLDRVIYSLIQTENKSVVNELFFRIAEGEDSFAELARKYSQGAEADRGGIIGPVELGSITPNFAQLLYTSQVGVVQPPVAFGNTWVIVRVEKLIPAQLDDFMRQRLLQENFEDWFQQQLNQLSPEEKIWMGINPKSDQVQEMA | failed

Source: a protein production outcome set (Wang et al. 2014)
